What was measured:
[1] = system: eNOS and CCR10 interaction with LAMP1; experiment: eNOS internalization and degradation in HDMVECs stimulated with CCL28 (Co-IP with LAMP1, confocal microscopy); assay type: cell-based, human; conditions: HDMVECs
Protocol: (§1) Co-IP Experiments, cells or mouse wounds were collected after treatment, and lysed in 2% ODG in Tris buffer. The homogenates were further prepared for Co-IP experiments as described in the art (Chen, et al. (2018) Mol. Biol. Cell 29(10):1190-1202; Chen, et al. (2020) FASEB J. 34(4):5838-5850; Chen, et al. (2015) Ann. Rheum. Dis. 74:1898-1906).
Confocal Microscopy. For cellular immunostaining, confluent monolayers of cells grown on coverslips were prepared as described previously (Chen, et al. (2012) Mel. Biol. Cell 23(7):1388-1398). Fluorescent images were obtained using a Zeiss LSM 880 confocal microscope. The co-localization coefficient in specified regions of interest (ROI) were determined using Zeiss Zen software. Briefly, using the Overlay tool, the desired ROI was drawn along the cell edge and the values for the ROIs tabulated. The scatterplot and table were automatically adjusted to the pixel distribution for the selected ROI. The data from different treatment groups were collected and analyzed for statistical significance as described previously (Chen, et al. (2020) FASEB J. 34(4):5838-5850). […]
Since myristoylated 7 amino acid CCR10-binding domain (Myr-CBD7) peptide can block eNOS interaction with CCR10 and increase eNOS activity in HUVECs, it was assessed whether Myr-CBD7 can prevent eNOS internalization and degradation in HDMVECs following CCL28 stimulation. […]

[2] = system: eNOS, p85 (PI3K), Src kinase, ERK (MAPK), β-catenin, Bcl-2; experiment: Immunoblot of CCL28 signaling in endothelial cells; assay type: cell-based, human
Protocol: Immunoblot and Co-Immunoprecipitation (Co-IP). After serum starvation, inhibitors were added 45 minutes prior to stimulation for indicated times at 37° C., and cells were then collected and lysed for western blot analysis. After probing for p-eNOS (Ser1177), p-p85 (Tyr458), p-Src (Tyr 416), and p-ERK (T202/Y204), the same blots were stripped and re-probed for total proteins mentioned above. For detection of CCL28-induced protein levels of β-catenin and Bcl-2, near-confluent endothelial cells were incubated with 500 ng/ml CCL28 for 24 hours in EGM-2 medium containing 1% FBS.
(§2) NO production was also observed in HUVECs following treatment with 500 ng/ml human recombinant CCL28, the ligand for CCR10. The signaling pathways activated by CCL28 binding to CCR10 in endothelial cells were further investigated.
The role of CCL28/CCR10 signaling pathways was further investigated in angiogenesis. Pretreatment of cells with 10 μM wortmannin (PI3K inhibitor), 5 μM U0126 (MAPK/ERK inhibitor), 1 mM L-NAME (eNOS inhibitor), 10 μM PP2 (Src kinase inhibitor), and 10 μM STO-609 ([…]) reduced endothelial cell tube formation induced by 500 ng/ml CCL28. […]

[3] = system: HUVECs; experiment: NO production in HUVECs; assay type: cell-based, human; conditions: 500 ng/ml
Protocol: Nitric Oxide (NO) Measurement with DAF-FM Diacetate. Confluent HUVEC monolayers on 96-well plates were loaded with 2.5 μM DAF-FM and incubated for 45 minutes at 37° C. NO concentration was measured using a SpectraMax Microplate Reader (Molecular Devices, San Jose, Calif.) as described in the art (Chen, et al. (2020) FASEB J. 34(4):5838-5850).
as §2

[4] = target: T1, CCR10-eNOS interaction (Homo sapiens, UniProt P46092); experiment: Ligand-induced CCR10-eNOS interaction in HUVEC (Co-IP, confocal co-localization); assay type: cell-based; conditions: plasma membrane ROI, stimulation for 5 minutes; untreated control cells 43%
T1 construct: host or cells: HUVEC (primary human umbilical vein endothelial cells)
T1 sequence (P46092 1-362): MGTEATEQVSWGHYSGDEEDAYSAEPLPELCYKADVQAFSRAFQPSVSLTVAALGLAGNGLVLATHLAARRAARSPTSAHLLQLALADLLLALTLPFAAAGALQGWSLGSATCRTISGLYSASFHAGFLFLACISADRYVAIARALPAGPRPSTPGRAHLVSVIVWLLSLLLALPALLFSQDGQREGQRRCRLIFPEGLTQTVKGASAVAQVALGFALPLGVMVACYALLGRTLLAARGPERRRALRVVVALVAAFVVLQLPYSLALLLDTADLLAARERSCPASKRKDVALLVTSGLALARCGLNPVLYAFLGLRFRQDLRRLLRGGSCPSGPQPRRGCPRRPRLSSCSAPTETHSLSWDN
Protocol: as §1
Confocal Microscopy. For cellular immunostaining, confluent monolayers of cells grown on coverslips were prepared as described previously (Chen, et al. (2012) Mel. Biol. Cell 23(7):1388-1398). Fluorescent images were obtained using a Zeiss LSM 880 confocal microscope. The co-localization coefficient in specified regions of interest (ROI) were determined using Zeiss Zen software. Briefly, using the Overlay tool, the desired ROI was drawn along the cell edge and the values for the ROIs tabulated. […] The data from different treatment groups were collected and analyzed for statistical significance as described previously (Chen, et al. (2020) FASEB J. 34(4):5838-5850).
To investigate whether CCR10 interacts directly with eNOS, primary culture HUVEC were collected and prepared for co-immunoprecipitation (Co-IP) to assess CCR10-eNOS interaction following stimulation with 5 μM A23187. […] Co-localization coefficient in the regions of interest (ROI) in the plasma membrane were quantified from Zeiss LSM 880 confocal microscope images using Zeiss Zen software.

[5] = target: T2, eNOS-CCR10 interaction (Homo sapiens, UniProt P46092); experiment: CCL28-induced eNOS-CCR10 interaction in HDMVECs; assay type: cell-based; conditions: 500 ng/ml
T2 construct: host or cells: HDMVEC (human dermal microvascular endothelial cells)
T2 sequence (P46092 1-362): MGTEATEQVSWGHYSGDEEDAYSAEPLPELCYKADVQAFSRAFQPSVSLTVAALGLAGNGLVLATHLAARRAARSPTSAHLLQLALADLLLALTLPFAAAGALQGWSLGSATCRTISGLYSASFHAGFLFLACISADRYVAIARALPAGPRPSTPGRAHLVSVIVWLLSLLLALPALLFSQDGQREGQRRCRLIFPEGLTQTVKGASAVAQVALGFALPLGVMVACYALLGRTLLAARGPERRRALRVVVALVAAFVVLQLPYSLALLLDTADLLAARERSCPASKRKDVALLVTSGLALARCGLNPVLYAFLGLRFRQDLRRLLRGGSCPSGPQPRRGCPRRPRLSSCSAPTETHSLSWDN
T2 sequence (P29474 2-1203 partner limits assumed): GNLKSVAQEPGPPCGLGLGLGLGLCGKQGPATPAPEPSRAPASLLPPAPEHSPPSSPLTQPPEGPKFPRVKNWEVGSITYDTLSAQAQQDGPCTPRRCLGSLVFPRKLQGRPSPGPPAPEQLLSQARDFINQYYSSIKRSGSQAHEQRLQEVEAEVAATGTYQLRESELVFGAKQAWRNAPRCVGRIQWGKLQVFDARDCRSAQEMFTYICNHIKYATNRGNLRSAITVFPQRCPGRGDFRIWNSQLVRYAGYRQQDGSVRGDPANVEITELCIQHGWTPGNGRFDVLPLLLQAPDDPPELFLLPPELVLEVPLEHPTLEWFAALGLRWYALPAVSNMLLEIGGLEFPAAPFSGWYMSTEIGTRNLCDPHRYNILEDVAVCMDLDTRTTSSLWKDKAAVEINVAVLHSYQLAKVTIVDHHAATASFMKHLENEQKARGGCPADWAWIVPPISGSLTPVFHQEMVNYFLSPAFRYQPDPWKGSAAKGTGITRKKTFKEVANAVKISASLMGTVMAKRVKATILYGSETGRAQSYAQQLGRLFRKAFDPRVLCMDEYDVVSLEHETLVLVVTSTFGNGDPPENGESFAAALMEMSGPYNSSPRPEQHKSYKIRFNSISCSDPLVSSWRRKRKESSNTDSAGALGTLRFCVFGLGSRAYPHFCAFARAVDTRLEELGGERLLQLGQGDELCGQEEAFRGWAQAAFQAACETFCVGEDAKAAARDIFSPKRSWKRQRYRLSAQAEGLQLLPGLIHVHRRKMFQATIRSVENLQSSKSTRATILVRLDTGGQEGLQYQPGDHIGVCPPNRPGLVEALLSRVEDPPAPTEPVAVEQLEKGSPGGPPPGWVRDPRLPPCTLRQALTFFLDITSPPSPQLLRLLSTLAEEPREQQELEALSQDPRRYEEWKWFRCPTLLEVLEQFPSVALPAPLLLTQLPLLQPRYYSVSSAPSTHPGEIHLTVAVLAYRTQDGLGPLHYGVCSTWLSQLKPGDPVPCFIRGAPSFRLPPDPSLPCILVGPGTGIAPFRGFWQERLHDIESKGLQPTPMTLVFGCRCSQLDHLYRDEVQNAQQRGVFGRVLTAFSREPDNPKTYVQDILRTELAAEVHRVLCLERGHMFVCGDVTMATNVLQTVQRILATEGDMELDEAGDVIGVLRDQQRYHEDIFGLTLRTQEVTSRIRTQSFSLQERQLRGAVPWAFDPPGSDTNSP
From the text: as §1
It has been shown that CCR10 is highly expressed in human umbilical vein endothelial cells (HUVECs) and human endothelial progenitor cells (EPCs) (Chen, et al. (2020) FASEB J. 34(4):5838-5850). In order to understand whether the CCL28/CCR10 signaling axis in dermal microvessels plays a role in wound healing, 500 ng/ml CCL28 was administrated to human dermal microvascular endothelial cells (HDMVECs). eNOS-CCR10 interaction increased with maximum binding observed at 5 minutes, similar to that observed in HUVEC (Chen, et al. (2020) FASEB J. 34(4):5838-5850). […] Upon stimulation with CCL28 for 5 minutes, CCR10 co-localized to a greater extent with eNOS on the plasma membrane.

- Co-localization coefficient of CCR10 and eNOS [4]: 78%
- eNOS-CCR10 interaction [5]: increased
- time of maximum eNOS-CCR10 binding [5]: 5 min
B1: CCL28: human recombinant CCL28, the ligand for CCR10 (protein)
chain: ILPIASSCCTEVSHHISRRLLERVNMCRIQRADGDCDLAAVILHVKRRRICVSPHNHTVKQWMKVQAAKKNGKGNVCHRKKHHGKRNSNRAHQGKHETYGHKTPY
- eNOS co-localization with EEA1 ([1]; 500 ng/ml for 90 minutes, preliminary analyses): more co-localization
- eNOS and CCR10 association with LAMP1 (co-IP) ([1]; 3 hours treatment): associated with LAMP1
- expression levels of β-catenin and Bcl-2 ([2]; stimulation of endothelial cells for 24 hours): enhanced
- Phosphorylation of eNOS (Ser1177), p85 (Tyr458; PI3K), Src kinase (Tyr418), and ERK (T202/Y204; MAPK) ([2]; treatment for up to 60 minutes): significantly increased
- NO production [3]: observed
